Measured values reported in the nanobody polyreactivity screen of Harvey et al. (2022).

test: yeast display, Sf9 membrane polyspecificity reagent, FACS + sequencing; frameworks hold sequencing errors
How it was run: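 Nanobodies from a synthetic yeast display library (Saccharomyces cerevisiae BJ5465), induced 36–48 hours with galactose, were stained 1 hour at 4 °C with 10% biotinylated, detergent-solubilized Sf9 membrane reagent, enriched on streptavidin microbeads, then FACS-sorted. Anti-HA (expression) and streptavidin (reagent binding) fluorescence set low and high (top ~1%) gates. Polyreactivity labels come from the gate of origin. Genes were colony-PCR amplified, MiSeq 2 × 250 sequenced and filtered by CDR length.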

Q: Which “polyreactivity (PSR sort gate)” value does the source give for “QVQLVESAGGLVQAGGSLRLSCDASGRIFQRNAMGWYRQEPGKERQFVAAISSRGGTTYYADSVKGRFTISRDNAKNTVYLQMNSLKQEDNAVYYCAAGYVHLYYFHEYYWGQGTQVTVSS” here?
A: The value was “high polyreactivity”.

Q: Which “polyreactivity (PSR sort gate)” value does the source give for “QVQLLESGGGLVQAGGSHRLSCAASGYIFHYNAMGWYIQAPGKERELVAAISYSGGSTYYADSVKGRFTISRDNAKNTVYLQMNSLKPEDTAVYYCAASRRPFPGYYWGQGTQVTVSS” here?
A: The value was “high polyreactivity”.

Q: For “QVQLVESGGGLVQAGGSLRLSCAASGSTFRVYAMGWYRQAPGKERELVAGITQTSGRTYYADSVKGRFTISRDNAKNTVYLQMNSLKPEDTAVYYCARESYSSYFHYYYWGQGTQVTVSS”, which “polyreactivity (PSR sort gate)” value is on record?
A: Its value is “high polyreactivity”.

Q: With “QVQLVKSGGGLVQAGGSLRVSCAATGRIYTDNAMGWYRQATGKERELVAGMSSSGGRTYYADSVKGRFTISRDNAKNSVFFQMNSLLTEATAVYYCAAANSRRDGRYYWGQGTQVSVSS” as the sequence, how does the “polyreactivity (PSR sort gate)” value read?
A: The value was “high polyreactivity”.

Q: With “QVQRVESGGGLVQAGGSLRLSCAASANTYLNAMGWYIQAPGKESELVAAISKGGADTYYADSVKGRFTISRDNAKNTVYLQMTSLIPEDSAVYYCADVGYADGWWVDYPWTYDYWGQGTQVTVSS” as the sequence, how does the “polyreactivity (PSR sort gate)” value read?
A: The value was “low polyreactivity”.

Q: With “QVKLVDSGGGLVQAGGSLRISCAASGRIFGRYTMGWYRQAPGKERELVAGITYSGGSTYYADSVKGRFTISRDNAKNTVYLQMNSLKPEDTAVYYCAARLSGSGGFDYWGQGTQVTVSS” as the sequence, how does the “polyreactivity (PSR sort gate)” value read?
A: The value was “high polyreactivity”.

Q: Which “polyreactivity (PSR sort gate)” value does the source give for “QVQHVESGGGLVQAGGSLRLSCAASGFTFGVNAMGWYRQAPGKERELVAVITSGGNTYYADSVKGRYTISRDNAKNTVYLQMNSLKPEDTAVYYCAADLSYTSYATRYQGDYWGQGTQVTVSS” here?
A: The value was “low polyreactivity”.

Q: For “QVQLVESGGGLVQAGGSLRLSCAASGSILTDYAMGWYRQAPGKERELVATISNGGSTNYADSVKGRFTISRDNAKNTVYLQMNSLKPEDTAVYYCNAEPGVPSWELDYWGQGTQVTVSS”, which “polyreactivity (PSR sort gate)” value is on record?
A: The value was “low polyreactivity”.

Q: With “QVQLVESGGGLVQAGGSLRLSCAASGSIFPYNVMGWYRQAPGKERELVAVITGSTGRTYYADSVKGRFTISRDNAKNTVYLQMNSLKPEDTAVYYCAKRRYWAPYDYWGQGTQVTVSS” as the sequence, how does the “polyreactivity (PSR sort gate)” value read?
A: Its value is “high polyreactivity”.

Q: For “QVQLVESGGGLVQAGGSLRLSCAASGFTFGSNAMGWYRQAPGKERELVAAISWSGGRTYYADSVKGRFTISRDNAKNTVYLQMNILKPEDTAVFYCNKQYVKPWYRGYYYWGQGTQVTVSS”, which “polyreactivity (PSR sort gate)” value is on record?
A: Its value is “high polyreactivity”.

Q: Which “polyreactivity (PSR sort gate)” value does the source give for “QVQLVESGGGLVQAGGSLRLSCAASGSTFGRNAMGWYRQAPGKERELVAGITRRGGSTYYADSVKGRFTISRDNAKNTVYLQMNSLKPEDTAVYYCNTRGQSSSGIYDYWGQGTQVTVSS” here?
A: The value was “high polyreactivity”.

Q: Which “polyreactivity (PSR sort gate)” value does the source give for “QVQLVDSGGGLVQAGGSLRLSCAASGITFKRYAMGWYRQAPGKERELVAAITGIGGSTYYADSVKGRFTISSDNAKNTVYLQMNSLKPEDTAVYYCAARNNKKYDYWGQGTQVTVSS” here?
A: Its value is “high polyreactivity”.

Q: With “QVQLVESGGGLVQAGGSLRLSCAASGRTFRTYTMGWYRQAPGKERELVAAISWSGSSTYYADSVKGRFTISRDNAKNTVYLQMNSLKPEDTAGYYCAARGLYDYGYWGQGTQVTVSS” as the sequence, how does the “polyreactivity (PSR sort gate)” value read?
A: The value was “high polyreactivity”.

Q: With “QVQLVESGGGLVQAGGSLRLSCAASGFTFITNAMGLYRQAPGKERELVASISIGGSTNYADSVKGRFTISRDNAKNTVYLQMNSLKPEDTAVYYCAARVYRRLFLPGRYGRPLGYWGQGTQVTVSS” as the sequence, how does the “polyreactivity (PSR sort gate)” value read?
A: The value was “high polyreactivity”.

Q: For “QVQLVESGGGLVQAGGSLRLSSPASGSIYRKYGMGSYRQAPGKERELVATITSSGGSTYYADSVKGRFSISRDNAKKTVYLQMNSLKPEDTAVYYCAADYYYLPGSYQVRAMYYWGQGTQVTVSS”, which “polyreactivity (PSR sort gate)” value is on record?
A: Its value is “high polyreactivity”.

Q: Which “polyreactivity (PSR sort gate)” value does the source give for “QVQLVESGGGLVQAGGSLRLSCAASGSIFARYAMGWYRQAPGKEREFVAAITGRGGTTNYADSVKGRFTISRDNAKNTVYLQMNSLKPEDTAVYYCNARDRYREHDYWGQGTQVTVSS” here?
A: The value was “high polyreactivity”.

Q: With “QVQLVESGGGLVQAGGSLRLSCAASGSTFSKNAMGWYREAPGKERELVAAISGSGGSTYYADSVKGRFTISRDNAKKTVYLQMNSLKPEESAVYYCAARYSGRRYGYWGQGTQVTVSS” as the sequence, how does the “polyreactivity (PSR sort gate)” value read?
A: Its value is “high polyreactivity”.

Q: With “QVQLVESGGGLVQAGGSLRLSCDASGSTFVHYAMGWYRQAPGKERQLVAAISSSGDSTYYADSVKGRFTISRDNAKNTVYLKMNSLKPEDTAVYYCAVRSRTPRAYYYWGQGTQVTVSS” as the sequence, how does the “polyreactivity (PSR sort gate)” value read?
A: The value was “low polyreactivity”.

Q: Which “polyreactivity (PSR sort gate)” value does the source give for “QVQLVESGGGLVQAGGSLRLSCAASGSTFGDYTMGWYRQAPGKERELVAAISSGGSTYYADSVKGRFTISRDNAKNTVYLQMNSLKPEDTAVYYCAAYTKRYLYNYWGQGTQVTVSS” here?
A: Its value is “high polyreactivity”.

Q: For “QVQLVESGGGLVQAGGSLRLSCAASGFTFRLYAMGWYRQAPGIERELVAAISSGGRTYYADSVKGRFTISRDNAKNTVYFQMNSLKPEDTAVNYCAVYPRDAERYGYWGQGSQVTVSS”, which “polyreactivity (PSR sort gate)” value is on record?
A: Its value is “high polyreactivity”.

Q: Which “polyreactivity (PSR sort gate)” value does the source give for “QVKLVESGGGLVQAGGSHRLSCAASGSIFGDYVMGSYRQAPGKEMELVAAINRGGSTYYADSVKGRFTISRDNAKNTVYLQMNSLKPADTAVYYCAAGYPSWYYGYPYDSWGQGTQVTVSS” here?
A: Its value is “low polyreactivity”.

Q: With “QVQLVESGGGLVQAGGSLRFSCAASGGTFSGYAMGWYRQAPGKERELVAAITSGGGTTYADSVKGRFTISRDNAKNTVYLQMNSLKPEDTAVYYCAKEGHVVIFYIGQYELDYWGQGTQVTVSS” as the sequence, how does the “polyreactivity (PSR sort gate)” value read?
A: The value was “low polyreactivity”.

Q: Which “polyreactivity (PSR sort gate)” value does the source give for “QVQLVESGGGLVQAGGSLRLSCAASGFTFIRYAMGWYRQAPGKEREFVAAISWRVGITYYADSVKGRFTMSRDNAKNTVYLQMNSLKPEDTAVYYCARDYRNPPFAYEYWGQGTQVTVSS” here?
A: Its value is “low polyreactivity”.

Q: Which “polyreactivity (PSR sort gate)” value does the source give for “QVQLVESGGGLVQAGGSLRLSCAASGSIFQAYVMGWYRQAPGTERELVATIDRRGGITYYADSVKGRFTISRDNAKNNVYLQMNSLKPEDTAVYYCATALIVLGPSRYEYWGQGTQVTVSS” here?
A: The value was “high polyreactivity”.

Q: With “QVQLVESGGGLVQAGGSLRLSCAATRSTSSKYAMGWYRQAPGKERELVAAITRSGGRTYYAVSVMGRFTISRDYAKNTVYLQMNSLKPEDTAVYYCAAAGVYWEFDYWGQGTQVTVSS” as the sequence, how does the “polyreactivity (PSR sort gate)” value read?
A: The value was “high polyreactivity”.

Q: Which “polyreactivity (PSR sort gate)” value does the source give for “QVQLVESGGGLVQAGGSLRISCAASGSTFPYYAMGWYRQAPGKERELVAAISQNGGSTYYADSVKGRFTISRDNAKNTVYLQMNSLKPEDTAGYYCNRTARKLRTVHSSVVGLDYWGQGTQVTVSS” here?
A: The value was “low polyreactivity”.

Q: Which “polyreactivity (PSR sort gate)” value does the source give for “QVQLVESAGGIVQAGGSLRLSCDASGSIFYYYAMGWYRQAPGKERELVADISYRGSRTFYADSVKGLFTISRDIAKNTVYLQMNSLKPEDTEVYYCAAAYSRYTSRFYYWGQGTQVTVSS” here?
A: The value was “high polyreactivity”.

Q: Which “polyreactivity (PSR sort gate)” value does the source give for “QVQLVESGGGLVQAGGSLRLSCAASGSIFGTYAMGWDRQARGQERALGAAIRWSSGSTYYADSVNGRFTISRDNATNTESLQMNSLKPADTAVYYCNAEYVYYWLGATFGYWGQGTQVTVSS” here?
A: Its value is “high polyreactivity”.

Q: Which “polyreactivity (PSR sort gate)” value does the source give for “QVQLVESGGGLVQAGGSLRLSCAASGRTFQRYAMGWYRQAPGKERELVAAITSGSRTNYADSVKGRFTSSRDNAKNTVYLQMNSLKPEDTAVYYCAADYTWRNNYCGQGTQVTVSS” here?
A: Its value is “high polyreactivity”.

Q: Which “polyreactivity (PSR sort gate)” value does the source give for “QVQLVESGGGLVQAGGSLRLSCAASGRIFDTYAMGWDRPAPRKERELVAAINSGGRTYYADSVKGRFTISRDNAKNTVYVQMNSLKPEDTAVYYCAAYITYSYGRYGSWGQGTQVTVSS” here?
A: Its value is “high polyreactivity”.

Q: With “QVQHVESGGGLVQAGGSLRLSCAASGRIFLHNAMGWYRQAPGKERELVAAITGGGSTYYADSVKGRFTISRDNAKNTVYLQMNSLKPEDTAVYYCATLGSLRYYWPGYDYWGQGTQVTVSS” as the sequence, how does the “polyreactivity (PSR sort gate)” value read?
A: The value was “low polyreactivity”.

Q: For “QVQLVESGGGLVQAGGSLRLSCAASGFIFTKYTMGWYRQAAGKVRELVAAIDSGGNTYADSVKGRFTISRDNAKNTVYLHMNSLKPEDTAVYYCAVDGGEFSSYGYWGQGTQVTVSS”, which “polyreactivity (PSR sort gate)” value is on record?
A: The value was “low polyreactivity”.

Q: Which “polyreactivity (PSR sort gate)” value does the source give for “QVQLVESGGGLVQAGGSLRLSCAASGSIFGYNAMGWYRQAPGKERELVAAIRISTDNTYYADSVKGRFTISRDNAKNTVYLQMNSLKPEDTAVYYCAADEYWWGYYYWGQGSQVTVSS” here?
A: The value was “high polyreactivity”.

Q: Which “polyreactivity (PSR sort gate)” value does the source give for “QGQLEESGGGLVQAGGSLRLSCAASGRTFAFYTMGWYRQAPGKERELVAAITRGGSTYYADSVKGRFTISRDNAKNTVYVQMNSLKPEDTAVYYCAASTRYYSQQFDYWGQGTQVTVSS” here?
A: Its value is “high polyreactivity”.

Q: For “QVQLVESGGGLDQAGGSLRLSCAASGFIFLDYAMGWYRRAPGKERELVAAISSRGARTYYADSVKGRFTISRDNAKNTFYLQMNSLKPEDTAVYYCAARGPLDRYGYWGQGTQVTVSS”, which “polyreactivity (PSR sort gate)” value is on record?
A: Its value is “high polyreactivity”.

Q: With “QVQLVESGGGLVQAGGSLRLSCAASGRTFGKNAMGWYRPAPGKERELVAAIRYRTGSTYYADSVKGRFTISRDNAKNTVYLQMNSLKPEDTAVYYCAKVGSSPLYWGQGTHVTVSS” as the sequence, how does the “polyreactivity (PSR sort gate)” value read?
A: The value was “high polyreactivity”.

Q: With “QVQLVESGGGLVQAGGSLRLSCASSGRTFGFNVMGWYRQATGKERELVAAISWSGGSTYYADSVKGRFTISRDNAKNTVYLQMNILKPEDTAVYYCNAQYSQVNGYDYWGQGTQVTVSS” as the sequence, how does the “polyreactivity (PSR sort gate)” value read?
A: The value was “low polyreactivity”.

Q: Which “polyreactivity (PSR sort gate)” value does the source give for “QVQLVESGGGLVQAGGSLRLSCAASGRTFLYNAMGWYRQAPGKERELVAAISGRGGRTYYADSVKGRFTISRDNAKNTVYLQMNSLKPEDTAVYYCAASQYYRWVIGYDFEYDYWGQGTQVTVSS” here?
A: The value was “high polyreactivity”.

Q: For “QVQLVESGGGLVQAGGSLRLSCAASGSTFRINTMGWYRQAPGKERELVATITGSGGSTYYADSVKGRFTISRDNAKNTVYLQMNSLKPEDTAVYYCAAVGDQNEYDYWGQGTQVTVSS”, which “polyreactivity (PSR sort gate)” value is on record?
A: The value was “low polyreactivity”.

Q: For “QVQLVESGGGLVQAGGSLRLSCAASGSTLAGYAMGWYRQAPGKERELVAAITRRGGRTYYADSVKGRFTISRDNAKNTVYLQMNSLKPEDTAVYYCAAQRSVKVDYWGQGTQVTVSS”, which “polyreactivity (PSR sort gate)” value is on record?
A: The value was “high polyreactivity”.

Q: For “QVQLVESGGGLVQAGGSLRLSCAASGRTFANNAMGWYRQAPGKERELVAAISSSDDSTYYADSVKGRFTISRDNAKNTVYLQMNILKPEDTAVYYCAAPYPGHQSRFGYESWGQGTQVTVSS”, which “polyreactivity (PSR sort gate)” value is on record?
A: Its value is “low polyreactivity”.
